Source: publication PMC4268634

What was measured:
Assay in all cases: SPR
[1] = biological target: Z_(VEGFR2_22)-(S4G)4-ABD035-(S4G)4-Z_(VEGFR2_40)
[2] = biological target: Z_(VEGFR2_40)-(S4G)4-ABD035-(S4G)4-Z_(VEGFR2_22)
[3] = biological target: Z_(VEGFR2_40)-(S4G)4-ABD035-(S4G)4-Z_(VEGFR2_40)

murine VEGFR2 (Sino Biological) (from UniProt P35918 20-762) (receptor)
koff [1]: 0.00014 s⁻¹
koff [2]: 0.00018 s⁻¹
koff [3]: 0.00079 s⁻¹
